Laboratory results published in US20240368574A1 (BELLICUM PHARMACEUTICALS, published 2024).

Target: four tandem FKBP12 domains expressed from pBP0722 pSH1-Fpk-Fpk'.LS.Fpk''.Fpk'''.LS.HA
Assay: cell-based or functional assay

B1: FRBL-ΔCaspase-9 expressed from pBP0463 pSH1-FRBL.dCaspase9.T2A (other)
chain: EMWHEGLEEASRLYFGERNVKGMFEVLEPLHAMMERGPQTLKETSFNQAYGRDLMEAQEWCRKYMKSGNVKDLLQAWDLYYHVFRRISKSGGGSGVDDGFGDVGALESLRGNADLAYILSMEPCGHCLIINNVNFCRESGLRTRTGSNIDCEKLRRRFSSLHFMVEVKGDLTAKKMVLALLELARQDHGALDCCVVVILSHGCQASHLQFPGAVYGTDGCPVSVEKIVNIFNGTSCPSLGGKPKLFFIQACGGEQKDHGFEVASTSPEDESPGSNPEPDATPFQEGLRTFDQLDAISSLPTPSDIFVSYSTFPGFVSWRDPKSGSWYVETLDDIFEQWAHSEDLQSLLLRVANAVSVKGIYKQMPGCFNFLRKKLFFKTSASRAEGRGSLLTCGDVEENPGP
IC50 of rapamycin or C7-isopropoxy-rapamycin (the small-molecule heterodimerizer, not of a protein) for loss of SRα-SEAP reporter activity in transfected 293 cells: ~3 nM
